From the nanobody polyreactivity screen of Harvey et al. (2022)

Assay: yeast display, Sf9 membrane polyspecificity reagent, FACS + sequencing; frameworks hold sequencing errors
How it was run: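 Sorting gates, low and high (top ~1%), were placed on anti-HA fluorescence to track expression and on streptavidin fluorescence to track reagent binding. A clone's polyreactivity label is taken from the gate it came out of. The reagent was 10% biotinylated, detergent-solubilized Sf9 membrane, applied for 1 hour at 4 °C to galactose-induced yeast display cells.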

Sequence	polyreactivity (PSR sort gate)
QVQIVESGGGLVQAGGSLRLSCAASGRIFCGNVMGWYRQAPGKERELVAAISGRGGRTYYAHSVKGRFTISRDNAKNTVYLQMNSLKPEDTAVYYCAASTGEEISGKRYNYWGQGTQVTVSS	high polyreactivity
QVQLVDSGGGLVQAGGSLRLTCAASGRTFWKYCKGWYRQAPGQERELVAVMSRPAGSTYYADSVKGRFPISRDNAKNTGYLLLNRLKPEDTAVYSCAKRPKNKPVLGDYDHWGQGTQVTVSS	low polyreactivity
QVQLVESGGGLVQAGGSLRLSCAASGSIFGLYAMGWYRQAPGKERELVARITRSGGRTYYADSVKGRFTISRDNAKNTVYLQMNSLKPEDTAVYYCNKLLPSYVLPDDYWGQGTQVTVSS	low polyreactivity
QVQLVESGGGLVQAGGSLRLSCAASGRTFRYNAMGWYREAPGKERELVAAISTRGGSTYYADSVKGRFTISRDNAKNTVYLQMNSLKPEDTAVYYCAVTRRFPGHFEDYYWGQGTQVTVSS	low polyreactivity
QVQLVESGGGLVQAGGSLRLSCAASGRIFSAYAMGLYRQAPGKERELVAAITSVGSTKYADSVKGRFTISRDNAKNTVYLQMNSLIPEDTAVYYCAAEYTRSFYIYYRFGYWGQGTQVTVSS	high polyreactivity
QLQLGESGGGLVQAGGSLRLSCAASGSTFIVYAMGWYRQAPGKVRELVAAISSDGSTYYADSVKGRFTISRDNAKNTVYLQMNRLKPEYTAVYYCAAYVYDADTGYDYWGQGTQVTVSS	low polyreactivity
QVQLVESGGGLVQAGGSLRLSCAASGYTFSRYAMGWYRPAPGKERELVAAITGRGGSTYYADSVKGRFTISRDNAKNTVYLLMNSLKPEDTAVYYCAVGRYPYVWRYYYWGQGTQVTVSS	high polyreactivity
QVQLVESGGGLVQAGGSLRLSCAASGLIFYAYAMGWYRQAPGKERELVAAISGSGGNTYYADSVKGRFTISRDNAKNTVYLQMNSLKPEDTAVYYCAADYTAAYPDSMYYWGQGTQVTVSS	low polyreactivity
QVQLVESGGGLVQAGGSLRLSCAASGRIFYKYAMGWYRQAPGKERELVAAISTGGTRTYYADSVKGRFTISRDNAKNTVYLQMNSLKPEDTAVYYCAARGGDKTYYYWGQGTQVTVSS	high polyreactivity
QVQLVESGGGLVQAGGSLRLSCAASGSTFRYYAMGWYRQAPGKERELVAAITWSGGRTTYADSVKGRFTISRDNAKNTVYLQMNSLKPEDTAVYYCAAEWHYFVTMYYWGQGTQVTVSS	low polyreactivity
QVQLVESGGGLVQAGGSLRLSCAASGRIFKTNAMGWDRQGPGKERELVAGITGRSGSSYYADSVKGRFTISRDIAMNTVYLQMNSLKPEDTAVYYCAAPLYGRYSYGYWGQGNQVTVSS	high polyreactivity
QVQLVESGGGLVQAGGSLRLSCAASGFIFDDNTMGWYRQAPGKERELVAAISYSAGSTYYADSVKGRFTISRDNAKNTVYLQMNSLKPEDTAVYYCAAQHYWVTSYLSSYDYWGQGTQVTVSS	low polyreactivity
QVQLVDSGGGLVQAGGSLRLSCDASGFIFERYAMGWYRQAPGKERELVAGIYSGGSTYYADSVKGRFTISRDNAKNTVYLQMNSLKPEDTAVYYCAPYRRQHIIYNYWGQGTQVTVSS	high polyreactivity
QVQLVESGGGLVQAGGSLRLSCAASGSTFNKYAMGWYRQAPGKEREFVAAITSSGGRTYYADSVKGRFTISRDNAKNTVYLQMNSLKPEDTAVYYCAARSYTYTAPIYGYWGQGTQVTVSS	high polyreactivity
QVQLVESGGGLVQAGGSLRLSCAASGSIFTAYTMGWYRQAPGKERELVAAITERGGSTYYADSVKGRFTISRDNAKNTVYLQMNSMKPEDTAVYYCAASTLKDIYLWFRVDYWGQGTQVTVSS	low polyreactivity
QVQLVESGGGLVQAGGSLRLSCAASGGTFYRNDMGWYRQAPGKERELVAVITYRGGSTDYADSVKGRFTISRDNAKNTVYFQMNSLKPEDTAVYYCAVDYTFSYPYEDDYWGQGTQVTVSS	low polyreactivity
QVQLVESGGGLVQAGGSLRLSCAASGFIFKFYAMGWYRQAHGKERELVAAISKSGGRTYYADSVKGRFTISRDNAKNTVYLQMNSLKPEDTAVYYCNAPSVGAAFDYWGQGTQVTVSS	high polyreactivity
QVQLVESGGGLVQAGGSLRLSCAASGSTFTSYAMGWYRQAPGKERELVAAIRYRGDGTYYADSVKGRFTISRDNAKNTVYLQMNSLKPEDTAVYYCAADSRVYRGGYIYRYGYWGQGTQVTVSS	low polyreactivity
QVQIVESGGGLVQAGGSLRLICAASGYTFTIYAMGWYRQAPGKERELVAAITTIGGRTYYADSVKGRFTISRDNAKNTVYLQMNSLKPEATAVYYCAARARVEGGYRGKFGYWGQGTQLTVSS	high polyreactivity
QVQLVDSGGGLVQAGGSLRISCAASGSIFPSNAMGWYRQAPGKERELVAAINRDGITNYADSVKGRFTISRDNAKNTVYLQMNSLKPEDTAVYYCAAEFAGQWWEYGYWGQGTQVTESS	low polyreactivity
QVQLVESGGGLVQAGGRLRLSCAASGSIFPYYVMGWYRQAPGKERELVAAISTSDGSTYADSVKGRFTISRDNAKNTVYLQMNSLKPEDTAVYYCAVANVYYVGYDYWGQGTRVTVSS	low polyreactivity
QVQLVESGGGLVQAGGRLRLSCAASGFIFPHYAMGWYRQAPGKDRELVAAITWSGSSTYYADSVKGRFTISRDNAKNTVYLQMNSLKPEDTAVYYCYADYRLWPTSRYRYGYWGQGTQVTVTS	high polyreactivity

Sequence	polyreactivity (PSR sort gate)
QVQLVESGGGLVQAGGSLRLSCAASGSIFGKYAMGWYRQAPGKERELVAAISWSGGSTYYADSVKGRFTISRDNAKNTVYLQMNSLKPEDTAVYYCAKRRVYYGSRYNYWGQGTQVTVSS	high polyreactivity
QVQLVESGGGLVQAGGSLRLSCAASGSTFSTYAMGWYRQAPGKERELVAAIRWSGGSTYYADSVKGRFTISRDNAKNTVYLQMNSLKPEDTAVYYCAKGIRRWYGGSDYWGQGTQVTVSS	low polyreactivity
QVQLVESGGGLVQAGGSLRLSCAASGSIFWSNAMGWYRQAPGKEREFVATITNGTTTNYADSVKGRFTISRDNAKNTVYLQMNSLKPEDTAVYYCAVTGVYVKYDYWGQGTQVTVSS	low polyreactivity
QVQLVESGGGLVQAGGSLRLSCAASGSIFPVYAMGWYRPAPGKERELVAAISWIGGGTYYADSVKGRFTISRDNAKNTVYLQKHSLKPEDTAVYDCAAVPYTSEYDYWGQGTEVTVSS	high polyreactivity
QVQLVESGGGLVQAGGSLRLSCAASGRTFPYYVMGWYRQAPGKERELVAAIRRTGGSTYYADSLKGRFTISRDNAKNTVYLQMNSLKPEDTAVYYCTKRHSILYEGGYDYWGQGTQVTVSS	low polyreactivity
QVQLVQSWPGLVQEGGSLRLSSAESGYTIRWYAMGCYRQAHGKERELVASITSGGNTNYADSVKGRFTISRDNAKNTVYLQMNRLKTEDTEVYYCAATRGYYRLDYWGQGTQVTVSS	high polyreactivity
QVQLVESGGGLVQAGGSLRLSCAASGSTFTAYAMGWYRQAPGKERELVADISDSGGSTYYADSVKGRFTISRDNAKNTVYLQMNSLKPEDTAVYYCAAAWVFKKGFGTEMDYWGQGTQVTVSS	low polyreactivity
QVQHVESGGGLVQAGGSLRLSCAASGSTFSANAMGWYRQAPGKERELVAVIRRGGSTTYADSVKGRFTISRDNAKNTVYLQMNSLKPEDTAVYYCNARVTLGRPLFTYLVRYEYWGQGTQVTVSS	high polyreactivity
QVQLVESGGGLVQAGGSLRLSCAASGRTFGYNAMGWYSQAPGKETELVAAINWSDASTYYADSVKGRFTISRDNAKNTVSLQMNSLKPEDTAVYYCAADYSYIYGFDYWGQGTLVTVSS	low polyreactivity
QVQLVESGGGLVQAGGSLRLSCAASGSTFLTYAMGWYRQAPGKEREFVAAISSTGTGRTYYADSVKGRFTISRDNAKNTVYLQMNSLKPEDTAVYYCAADLYGTYDYWGQGTQVTVSS	low polyreactivity
QVQLVESGGGLVQAGGSLRLSCAASGSIFLSYGMGRYRQAPGKERELVATITWSGGSTTYADSVKGRFTISRDNAKNTVYLQMNSLKPEDTAVYYCIALYDVWITLLTYTSSDYWGQGTQVTVSS	low polyreactivity
QVQLVESGGGLVQAGGSLRLSCAASGRIFPYYAMGWSRQAPGKERELVAAITSGGTTYYADSVKGRFTISRDNAKNTVYLQMNSLKPEDTAVYYCEYDYWGQGTQVTVSS	low polyreactivity
QVQLVESGGGIVQAGGSLRLSCAASGITFQRNALGWYRQAPGKERELVAAISKSGGSTYYADSVKARFTISRDNAKNTVYLQMNSLKPEDTAVYDCAAPVWRYYRGKTFDFWGQGTQVTVSS	high polyreactivity
QVQLVVSGGGLVQEGGSLRLSCAASGGLFSLYAMGWYRQAPGKEREFVSAISFSGASTYYADSVKGRFTISRDNAKNTVSLQKNSLKPEDTSVYYCAAYWDAVGRRYTRLYYWGQGTQVTVSS	low polyreactivity
QVQLVESGGGLDQAGGSLRLSCAAYGITFGYYAMGWYRQAPGKERELVASITTRGGSTSYADSVKGRFTISRDNAKNTVYLQMNSLKPEDTAVYYCAARWRQRKSVRYGQQGYDYWGQGTQVTVSS	high polyreactivity
QLQLVESGGGLVQAGGSLRISCAASGFIFNGYAMGWSRQAPGKERELVAAITADVGDTYYADSVKGRFTLSRDNAKYTVYLQLNSLKPDDPAVYYCAADQAEWLDPDDYWGQGTQVTVSS	low polyreactivity
QVQLVESGGGLGQAGGSLRLSCAASGRTFYYYTMGWYRPAPGKERELVAAITHGGSTYYADSVKGRFTISRDNAQNTVYLQMNSLKPEDTAVYSCTAVYHYPYEYWGQGTQVTVSS	high polyreactivity
QVQLVESGGGLVQAGGSLRLSCAASGSTFDYNTMGWYIQAPGKERELVAAISESGGSTYYADSVKGRFTISRDNAKNTVYLQMNSLKPEDTAVYYCATDDFGGYFGEYDYWGQGTQVTVSS	low polyreactivity
QVQLVESGGGLVQAGGILRLSCAASGSTFVPNTMAWYRQAPGKERELVAAITYSGGSTYYADSVKGRFTISRDNAKNTVYLQMNSLKPEDTAVYYCAAEGTTWYYDMDYWGQGTQVTVSS	low polyreactivity
QVQLVESGGGLVQAGGSLRLSCAASGSIFSDNAMGWYRQAPGKERELVASITNSGSTNYADSVKGRFTISRDNAKNTVYLQMNSLKPEDTAVYYCAFSFLYTYDYWGQGTQVTVSS	low polyreactivity
QVQLVDSGGGLVQAGGSLRLSCAASGRTFAFNYAMGWYRQAPGKERELVAAISSSGTRTRYADSVKGRFTISRDNAKNTVYLQMNSLKPEDTAVYYCSKRSLGIGRSNYWGQGTQVTVSS	high polyreactivity
